# Experimental data published in US5683867, “Systematic evolution of ligands by exponential enrichment: blended SELEX” (NeXstar Pharmaceuticals, Inc.).
# Molecular target: neutrophil elastase (HNE) (Homo sapiens, UniProt P08246 P08246:30-267)
# Assay: inhibition; blended ligand (end not specified for Ki); chromogenic substrate, 10 nM elastase, 2 mM MgCl2, 150 mM NaCl, 25 C; >50% inhibition at 70 nM for 3' conjugate
# From the text: The assay for elastase inhibition is based on the use of a chromogenic tetrapeptide substrate. […] The rate of p-nitroanilide generation in the absence of inhibitor was used as the control.
# Chain of neutrophil elastase (HNE) (P08246 30-267, one chain of several): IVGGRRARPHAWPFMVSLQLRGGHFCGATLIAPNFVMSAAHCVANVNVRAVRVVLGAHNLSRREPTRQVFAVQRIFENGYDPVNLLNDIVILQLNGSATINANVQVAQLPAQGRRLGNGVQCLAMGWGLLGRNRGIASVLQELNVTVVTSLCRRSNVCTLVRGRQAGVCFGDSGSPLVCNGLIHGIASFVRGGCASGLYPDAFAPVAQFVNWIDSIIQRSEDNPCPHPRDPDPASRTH
binder,measurement,value
"DNA-17 3'-end peptide conjugate (ssDNA, 3' four 18-atom ethylene glycol spacers and thiol coupled to N-methoxysuccinyl-Ala-Ala-Pro-Val-chloromethyl ketone) DNA: TAGCGATACTGCGTGGGTTGGGGCGGGTAGGGCCAGCAGTCTCGTGCGGTACTTGAGCA",Ki,0.03 µM
